According to article PMC7821693, “Revealing biophysical properties of KfrA-type proteins as a novel class of cytoskeletal, coiled-coil plasmid-encoded proteins”:
Several values for one entry are separate records, joined by “and”; a condition that tells them apart may be missing. Identical values can stand only once.

Legend:
[1] = target: His6-KfrA_(R751) (plasmid R751 (IncP-1β)); assay: cross-linking; glutaraldehyde at different concentrations, protein 0.1 mg/ml, 20 min at 25 °C, 0.05 M bicine-NaOH pH 8.5, 0.1 mM DTT, 0.4 M NaCl; products on SDS-PAGE
[2] = target: T1, KfrA R751 (His6-KfrAR751) (IncP-1beta plasmid R751, UniProt P71173 1-342); assay: EMSA; complex unstable, smear; two complexes; EMSA: 50 mM Tris-HCl pH 8.0, 10 mM MgCl2, 50 mM NaCl, 10 pmol DNA, 30 min at 37 C (legend: 25 C), 2.5% agarose in 0.5x TBE; TEM: 0.3 mg/ml protein, 50 mM sodium phosphate pH 7.5, 150 mM NaCl; settings: protein: recombinant; chain copies: 2; blunt
T1 sequence: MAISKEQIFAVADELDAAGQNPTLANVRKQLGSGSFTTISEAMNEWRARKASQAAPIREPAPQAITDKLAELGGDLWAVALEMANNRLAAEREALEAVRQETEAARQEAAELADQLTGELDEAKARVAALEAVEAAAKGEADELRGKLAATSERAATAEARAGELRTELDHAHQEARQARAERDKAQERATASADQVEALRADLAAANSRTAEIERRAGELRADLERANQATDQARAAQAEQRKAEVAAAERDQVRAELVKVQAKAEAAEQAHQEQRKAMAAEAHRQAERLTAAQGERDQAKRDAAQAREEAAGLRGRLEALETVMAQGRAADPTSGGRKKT

KfrA RA3 (His6-KfrARA3) [3] = target: T2, KfrA RA3 (His6-KfrARA3) (IncU plasmid RA3, UniProt Q209P3 1-355); assay: EMSA; two complexes, some smear; EMSA: 50 mM Tris-HCl pH 8.0, 10 mM MgCl2, 50 mM NaCl, 10 pmol DNA, 30 min at 37 C (legend: 25 C), 2.5% agarose in 0.5x TBE; TEM: 0.3 mg/ml protein, 50 mM sodium phosphate pH 7.5, 150 mM NaCl; settings: protein: recombinant; chain copies: 2; blunt
T2 sequence: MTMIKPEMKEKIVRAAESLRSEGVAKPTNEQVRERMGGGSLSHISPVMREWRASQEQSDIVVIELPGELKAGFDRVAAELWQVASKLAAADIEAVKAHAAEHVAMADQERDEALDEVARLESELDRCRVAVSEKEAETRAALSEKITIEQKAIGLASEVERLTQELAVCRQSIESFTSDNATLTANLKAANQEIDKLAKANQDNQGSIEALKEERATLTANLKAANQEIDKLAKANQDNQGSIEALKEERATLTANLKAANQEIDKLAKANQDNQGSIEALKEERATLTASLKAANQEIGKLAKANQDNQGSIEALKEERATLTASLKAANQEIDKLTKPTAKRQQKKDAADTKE

KfrA RA3 (His6-KfrARA3) [4] = target: T2, KfrA RA3 (His6-KfrARA3); assay: competition; unlabeled competitor vs labeled OKRA3; EMSA: 50 mM Tris-HCl pH 8.0, 10 mM MgCl2, 50 mM NaCl, 10 pmol DNA, 30 min at 37 C (legend: 25 C), 2.5% agarose in 0.5x TBE; TEM: 0.3 mg/ml protein, 50 mM sodium phosphate pH 7.5, 150 mM NaCl; settings: protein: recombinant; chain copies: 2; blunt

His6-KfrA_(R751) (natural protein)
stoichiometry N [1]: 2 and 4

B1: OKR751 (#15/#16), 50 bp (dsDNA)
DNA 1: CTTGCGTAGTGTTGTATGTTGTAGTATGCTACACGCTACAACATACAACC
DNA 2: GGTTGTATGTTGTAGCGTGTAGCATACTACAACATACAACACTACGCAAG
binding result [2]: binds

B2: OKRA3 (#17/#18), 60 bp (dsDNA)
DNA 1: TCCGTTGTATTGTATGTATTGTATGTATTGTATTAAAATACAATACATACAATACAGGGA
DNA 2: TCCCTGTATTGTATGTATTGTATTTTAATACAATACATACAATACATACAATACAACGGA
binding result (KfrA RA3 (His6-KfrARA3) [3]): binds

B3: OG5/OD5 (#9/#10), specific competitor (dsDNA)
DNA 1: TATGTATTGTATGTATTGTATTAAAATACAATACATACAATACAGG
DNA 2: CCTGTATTGTATGTATTGTATTTTAATACAATACATACAATACATA
binding result (KfrA RA3 (His6-KfrARA3) [4]): binds
